# Data as given in article PMC5344419, “The structure of FKBP38 in complex with the MEEVD tetratricopeptide binding-motif of Hsp90” (PLoS ONE, 2017).
# “Also recorded” adds a separate entry of the source.
# B1: FKBP8: immunophilin with N-terminal glutamate rich region, PPIase domain and tetratricopeptide domain; construct not specified at the place (protein)
# chain: MASCAEPSEPSAPLPAGVPPLEDFEVLDGVEDAEGEEEEEEEEEEEDDLSELPPLEDMGQPPAEEAEQPGALAREFLAAMEPEPAPAPAPEEWLDILGNGLLRKKTLVPGPPGSSRPVKGQVVTVHLQTSLENGTRVQEEPELVFTLGDCDVIQALDLSVPLMDVGETAMVTADSKYCYGPQGRSPYIPPHAALCLEVTLKTAVDGPDLEMLTGQERVALANRKRECGNAHYQRADFVLAANSYDLAIKAITSSAKVDMTFEEEAQLLQLKVKCLNNLAASQLKLDHYRAALRSCSLVLEHQPDNIKALFRKGKVLAQQGEYSEAIPILRAALKLEPSNKTIHAELSKLVKKHAAQRSTETALYRKMLGNPSRLPAKCPG
# modifications: left off: His6, C-terminal, kept
# notes: immunophilin with N-terminal glutamate rich region, PPIase domain and tetratricopeptide domain; construct not specified at the place
# B2: FKBP^92-380: fragment containing both the immunophilin and TPR domain (protein)
# chain: EWLDILGNGLLRKKTLVPGPPGSSRPVKGQVVTVHLQTSLENGTRVQEEPELVFTLGDCDVIQALDLSVPLMDVGETAMVTADSKYCYGPQGRSPYIPPHAALCLEVTLKTAVDGPDLEMLTGQERVALANRKRECGNAHYQRADFVLAANSYDLAIKAITSSAKVDMTFEEEAQLLQLKVKCLNNLAASQLKLDHYRAALRSCSLVLEHQPDNIKALFRKGKVLAQQGEYSEAIPILRAALKLEPSNKTIHAELSKLVKKHAAQRSTETALYRKMLGNPSRLPAKCPG
# modifications: left off: His6 (from the vector pDMXV4), C-terminal, kept
# notes: fragment containing both the immunophilin and TPR domain
# Tested on: yeast Hsp90
# Test: ATPase activity of yeast Hsp90
# Type: biochemical
# Conditions: ATPase assay, 5-molar excess of FKBP^92-380 over Hsp90 (Fig 7)
row,Molecule,effect on ATPase activity of Hsp90
1,B1,did not substantially influence; also recorded: did not show any substantial effect
2,B2,did not substantially alter
